The record followed here is patent EP3124498A1 (Oilcrops Research Institute of Chinese Academy of …, dated 2017).

The assay deals with T1, BSA (UniProt P02769 25-607).
T1 construct: also called carrier protein BSA; 3% BSA
The assay is described as follows: phage ELISA on coated plates, detection with HRP/anti-M13, OD450.

T1 sequence (P02769 25-607 limits assumed): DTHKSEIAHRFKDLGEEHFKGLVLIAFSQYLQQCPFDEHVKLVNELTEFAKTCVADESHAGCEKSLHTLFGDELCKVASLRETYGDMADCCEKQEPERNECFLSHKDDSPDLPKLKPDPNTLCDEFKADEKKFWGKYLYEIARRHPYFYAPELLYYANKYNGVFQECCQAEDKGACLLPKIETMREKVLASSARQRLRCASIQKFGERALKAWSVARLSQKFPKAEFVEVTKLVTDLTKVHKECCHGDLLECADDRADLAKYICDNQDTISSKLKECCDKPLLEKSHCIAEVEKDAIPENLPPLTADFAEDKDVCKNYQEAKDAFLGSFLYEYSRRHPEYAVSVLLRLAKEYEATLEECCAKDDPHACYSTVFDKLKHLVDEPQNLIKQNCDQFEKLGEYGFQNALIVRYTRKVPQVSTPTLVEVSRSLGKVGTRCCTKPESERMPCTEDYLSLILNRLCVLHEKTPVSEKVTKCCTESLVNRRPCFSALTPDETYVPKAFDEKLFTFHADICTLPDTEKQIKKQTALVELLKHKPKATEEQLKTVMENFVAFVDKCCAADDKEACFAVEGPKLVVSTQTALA

B1: aflatoxin B1 nanobody 2014AFB-G15 (VHH)
VHH: QLQLVESGGGLVQAGGSLRLSCAASGRTFSSYAMGWFRQAPGKEREFVAAISWSGGSTYYTDSVKGRFTINRDNAKNTVYLQMNSLKPEDTAVYYCAAGFSGNYYRTPDYWGQGTQVTVSS
notes: also called antibody 2014AFB-G15
Consider B1, for which the binding result is recorded as “no binding (tested: wells coated with 3% BSA)”.
